Measurements as given in article PMC9251408 (2022).
Values belong to the binder of their own block, whether it stands above or below them.

Columns and labels:
[1] = molecular target: T1, IL-10 receptor alpha (Mus musculus, UniProt Q61727)
T1 chain: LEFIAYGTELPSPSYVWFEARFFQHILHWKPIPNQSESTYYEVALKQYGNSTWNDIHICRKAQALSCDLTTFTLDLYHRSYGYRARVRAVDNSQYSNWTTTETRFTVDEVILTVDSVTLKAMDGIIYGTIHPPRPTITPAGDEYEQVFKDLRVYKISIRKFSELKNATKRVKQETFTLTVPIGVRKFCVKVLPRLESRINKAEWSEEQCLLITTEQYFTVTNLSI

[2] = molecular target: T2, IL-10 receptor alpha (Homo sapiens, UniProt Q13651)
T2 chain: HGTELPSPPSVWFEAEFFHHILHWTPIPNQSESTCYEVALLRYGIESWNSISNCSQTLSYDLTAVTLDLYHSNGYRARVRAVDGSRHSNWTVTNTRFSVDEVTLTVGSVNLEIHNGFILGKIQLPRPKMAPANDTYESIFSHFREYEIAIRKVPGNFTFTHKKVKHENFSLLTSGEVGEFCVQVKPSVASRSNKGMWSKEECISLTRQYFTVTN

- Kd [1]: 3.2 nM
B1: mFc-mIL-10 (mouse IL-10 mouse Fc-fusion) (protein)
chain: SRGQYSREDNNCTHFPVGQSHMLLELRTAFSQVKTFFQTKDQLDNILLTDSLMQDFKGYLGCQALSEMIQFYLVEVMPQAEKHGPEIKEHLNSLGEKLKTLRMRLRRCHRFLPCENKSKAVEQVKSDFNKLQDQGVYKAMNEFDIFINCIEAYMMIKMKS
modifications: IL-10 fused to C-terminus of effector-reduced mouse Fc via Gly-Ser linker

- Kd [1]: 2.9 nM
- Kd [2]: 0.6 nM
B2: hFc-hIL-10 (human IL-10 human Fc-fusion) (protein)
chain: SPGQGTQSENSCTHFPGNLPNMLRDLRDAFSRVKTFFQMKDQLDNLLLKESLLEDFKGYLGCQALSEMIQFYLEEVMPQAENQDPDIKAHVNSLGENLKTLRLRLRRCHRFLPCENKSKAVEQVKNAFNKLQEKGIYKAMSEFDIFINYIEAYMTMKIRN
modifications: IL-10 fused to C-terminus of effector-reduced human Fc via Gly-Ser linker
